Nine molecules from patent US20190064177A1, “INCORPORATING COMPETITIVE BINDING INFORMATION INTO MOLECULAR ARRAY ANALYSIS TO GENERATE FUNCTION NETWORKS OF INTERACTIONS” (ARIZONA BOARD OF REGENTS ON BEHALF OF ARIZONA STATE …, priority 2017, published 2019) can be followed below.

Assay [1] addresses Diaphorase. Description: peptide array, 1 uM labeled diaphorase, no FAD.
The target in assay [2] is Diaphorase. Description: peptide array, 1 uM labeled diaphorase, with FAD.
In assay [3] the target is Diaphorase. Description: peptide array, 1 uM diaphorase, binding without FAD / with FAD.
Assay [4] addresses Diaphorase. Briefly: peptide array, 10 uM diaphorase, binding without FAD / with FAD.
The target in assay [5] is Diaphorase. Briefly: peptide array, 10 uM labeled diaphorase, no FAD; detector saturation.
The target in assay [6] is Diaphorase. Briefly: peptide array, 10 uM labeled diaphorase, with FAD; detector saturation.
Assay [7] addresses Diaphorase. Briefly: peptide array, 10 uM labeled diaphorase, with FAD.
Assay [8] addresses Diaphorase. Briefly: peptide array, 10 uM labeled diaphorase, no FAD.

With YRPYGPVYNGGSG, the fluorescence with Diaphorase [1] is 18700; with Diaphorase [2], 6760; with Diaphorase [5], greater than 65500; with Diaphorase [6], greater than 65500. The values for the noFAD/FAD in the assay with Diaphorase [3] and with Diaphorase [4] were 2.77 and 1, respectively.
With PRYQNFGGGSG, the fluorescence in the assay with Diaphorase [1] is 6910; with Diaphorase [2], 2460; with Diaphorase [7], 36700; with Diaphorase [5], greater than 65500. Moreover, the noFAD/FAD was found to be 2.81 in the assay with Diaphorase [3] and 1.79 in the assay with Diaphorase [4].
In the case of RWQYYNQKFGSG, the fluorescence was 15700 with Diaphorase [1], 5460 with Diaphorase [2], greater than 65500 with Diaphorase [5] and greater than 65500 with Diaphorase [6]. Besides, the noFAD/FAD worked out at 2.88 with Diaphorase [3] and 1 with Diaphorase [4].
In the case of PRYSGQYGGSG, the fluorescence with Diaphorase [1] was 8430; with Diaphorase [2], 3230; in the assay with Diaphorase [7], 45200; with Diaphorase [5] it was greater than 65500. Further, the noFAD/FAD with Diaphorase [3] stood at 2.61; in the assay with Diaphorase [4] it was 1.45.
Take RWSFPAKGGSG: the fluorescence is 10000 with Diaphorase [1], 3610 with Diaphorase [2], 51200 with Diaphorase [7] and greater than 65500 with Diaphorase [5]. The values for the noFAD/FAD with Diaphorase [3] and in the assay with Diaphorase [4] were 2.77 and 1.28, respectively.
With YRNAAWFSGGSG, the fluorescence was 8370 with Diaphorase [1], 2930 with Diaphorase [2], 43300 in the assay with Diaphorase [7] and greater than 65500 with Diaphorase [5]. In addition, the noFAD/FAD worked out at 2.86 with Diaphorase [3] and 1.51 in the assay with Diaphorase [4].
On to DLFQLVFSGSG, for which the fluorescence with Diaphorase [1] is 5780; with Diaphorase [8] it was 32700; with Diaphorase [2], 9010; with Diaphorase [6], greater than 65500. For the same molecule, the noFAD/FAD with Diaphorase [3] is 0.641; in the assay with Diaphorase [4] it was 0.499.
Turning to RYYPAFSGGSG, the fluorescence was 21900 with Diaphorase [1], 7540 with Diaphorase [2], greater than 65500 with Diaphorase [5] and greater than 65500 with Diaphorase [6]. In addition, the noFAD/FAD in the assay with Diaphorase [3] was determined as 2.91; with Diaphorase [4], 1.
Turning to RYPWNKLYKFDGSG, the fluorescence in the assay with Diaphorase [1] was 9740; in the assay with Diaphorase [2], 3480; with Diaphorase [7], 53000; with Diaphorase [5], greater than 65500. Further, the results for the noFAD/FAD with Diaphorase [3] and in the assay with Diaphorase [4] were 2.8 and 1.24, respectively.
